Patent US20230212635

Columns and labels:
C3b = C3b (UniProt P01024)

C3b, P01024, sequence (P01024 whole entry, looked up): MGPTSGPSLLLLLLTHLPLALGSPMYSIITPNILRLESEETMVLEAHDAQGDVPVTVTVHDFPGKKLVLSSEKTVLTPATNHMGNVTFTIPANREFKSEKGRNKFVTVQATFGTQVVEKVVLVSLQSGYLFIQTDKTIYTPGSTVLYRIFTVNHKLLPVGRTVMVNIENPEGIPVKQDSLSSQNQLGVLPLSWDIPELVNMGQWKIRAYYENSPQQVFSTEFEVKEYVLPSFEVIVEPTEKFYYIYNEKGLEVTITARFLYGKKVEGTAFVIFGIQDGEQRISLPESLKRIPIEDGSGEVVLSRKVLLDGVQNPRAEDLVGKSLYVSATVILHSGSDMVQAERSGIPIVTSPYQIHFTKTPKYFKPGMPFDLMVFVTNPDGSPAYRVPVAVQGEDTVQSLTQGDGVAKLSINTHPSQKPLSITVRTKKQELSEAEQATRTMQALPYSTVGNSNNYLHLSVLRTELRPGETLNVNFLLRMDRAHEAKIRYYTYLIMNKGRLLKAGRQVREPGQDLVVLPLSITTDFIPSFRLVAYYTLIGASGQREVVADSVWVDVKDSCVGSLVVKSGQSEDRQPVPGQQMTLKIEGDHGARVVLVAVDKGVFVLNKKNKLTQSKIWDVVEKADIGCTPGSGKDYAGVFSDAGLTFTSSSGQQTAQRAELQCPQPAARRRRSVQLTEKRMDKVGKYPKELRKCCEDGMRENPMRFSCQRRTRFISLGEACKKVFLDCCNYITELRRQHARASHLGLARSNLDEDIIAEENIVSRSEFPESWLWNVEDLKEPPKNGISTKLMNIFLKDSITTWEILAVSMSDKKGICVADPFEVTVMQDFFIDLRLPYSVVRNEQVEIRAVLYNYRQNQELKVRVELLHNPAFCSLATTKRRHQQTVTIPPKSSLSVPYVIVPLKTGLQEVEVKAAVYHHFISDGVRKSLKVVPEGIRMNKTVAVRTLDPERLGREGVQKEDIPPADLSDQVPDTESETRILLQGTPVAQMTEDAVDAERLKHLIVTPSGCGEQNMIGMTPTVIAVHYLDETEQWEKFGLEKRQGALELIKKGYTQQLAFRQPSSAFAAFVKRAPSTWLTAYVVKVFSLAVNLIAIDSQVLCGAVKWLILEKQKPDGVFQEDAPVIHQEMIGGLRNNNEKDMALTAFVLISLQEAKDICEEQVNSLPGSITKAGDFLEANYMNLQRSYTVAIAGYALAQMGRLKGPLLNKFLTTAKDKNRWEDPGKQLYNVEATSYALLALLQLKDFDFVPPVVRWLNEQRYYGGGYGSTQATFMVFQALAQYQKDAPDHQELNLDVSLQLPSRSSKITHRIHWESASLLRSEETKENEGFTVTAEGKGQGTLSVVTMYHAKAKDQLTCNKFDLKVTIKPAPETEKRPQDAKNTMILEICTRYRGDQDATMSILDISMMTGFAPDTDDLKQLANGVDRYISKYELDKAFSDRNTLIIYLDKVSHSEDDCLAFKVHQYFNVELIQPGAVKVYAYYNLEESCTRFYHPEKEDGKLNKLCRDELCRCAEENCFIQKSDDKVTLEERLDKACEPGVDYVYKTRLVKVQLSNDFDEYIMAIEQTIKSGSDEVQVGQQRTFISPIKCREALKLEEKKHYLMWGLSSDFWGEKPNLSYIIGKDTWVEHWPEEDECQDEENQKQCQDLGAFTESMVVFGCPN

| Molecule | fluid phase cofactor activity (C3b cleavage with Factor H, SDS-PAGE, Coomassie) (C3b) | fluid phase cofactor activity (C3b cleavage with Factor H, SDS-PAGE, Coomassie) (C3b, P01024) |
| --- | --- | --- |
| recombinant mature Complement Factor I from the pDEF-CFI vector in CHO-K1 cells (first Mono S peak) | At 30 minutes the lowest concentration of fully processed factor I (6.25ng) (right) had cleaved C3b as evidenced by decrease in C3α -110 band and increase in C3α-68,-46, and -43 bands | – |
| recombinant mature Complement Factor I produced from the Furin-IRES-CFI vector (VB171219-1127wqz) in HEK293T cells | Enzymatic activity of IRES CFI and serum CFI was demonstrated to be equivilant. | – |
| recombinant precursor Complement Factor I (single chain with intact RRKR linker) | by 45 minutes 10ng of precursor CFI showed no demonstrable activity | – |
| serum purified Complement Factor I (Complement Technology, A138) (protein) KVTYTSQEDLVEKKCLAKKYTHLSCDKVFCQPWQRCIEGTCVCKLPYQCPKNGTAVCATNRRSFPTYCQQKSLECLHPGTKFLNNGTCTAEGKFSVSLKHGNTDSEGIVEVKLVDQDKTMFICKSSWSMREANVACLDLGFQQGADTQRRFKLSDLSINSTECLHVHCRGLETSLAECTFTKRRTMGYQDFADVVCYTQKADSPMDDFFQCVNGKYISQMKACDGINDCGDQSDELCCKACQGKGFHCKSGVCIPSQYQCNGEVDCITGEDEVGCAGFASVTQEETEILTADMDAERRRIKSLLPKLSCGVKNRMHIRRKRIVGGKRAQLGDLPWQVAIKDASGITCGGIYIGGCWILTAAHCLRASKTHRYQIWTTVVDWIHPDLKRIVIEYVDRIIFHENYNAGTYQNDIALIEMKKDGNKKDCELPRSIPACVPWSPYLFQPNDTCIVSGWGREKDNERVFSLQWGEVKLISNCSKFYGNRFYEKEMECAGTYDGSIDACKGDSGGPLVCMDANNVTYVWGVVSWGENCGKPEFPGVYTKVANYFDWISYHVGRPFISQYNV | – | Enzymatic activity of IRES CFI and serum CFI was demonstrated to be equivilant. |
